The data set can be described thus: Temperature stability of the enzyme. It is filed as physicochemical. As to conditions: then 30 min at 37° C. with substrate. How it is done: i) Temperature Stability • The enzyme was left standing for one hour at various temperatures of from 0 to 60° C. and subsequently reacted with a synthetic substrate for 30 min at 37° C. Enzyme activity was then measured.

The results in this text go back to US7871797B2, “DNA encoding a bacterial protease for degrading gelatin and collagen” (Jellice Co., Ltd., priority 2003, dated 2011).

B1: protease of the present invention: protease of molecular weight 21,000±1,000 from Aureobacterium sp. MIM-CG-9535-I cutting specific Gly-Phe and Ser-Leu sites (protein, listed as Aureobacterium sp.)
chain: LIVNTVNSIDDKWSDAQASALTYCVSTAFGARHADVVSAMESGAALWEAASSKIDFIYDSSADANCTTRNNAVLFSVEPVQTTQYIARAFFPSTAPRLQNVLIDDSIWTPGSSWTPTNVLGHELGHVLGFRHEHTRPEAGTCFEDDNWRPLTPYDSSSIMHYPQCNGSSADLSMTSVDTDGVVALYGN
Regarding B1, the “Temperature stability: residual activity” value (left standing one hour at 30° C.) was “about half”. The Temperature stability entry (left standing one hour at 40° C. and above) is “nearly deactivated”.
